Test results taken from patent US20190071514A1, “ANTI-CD39 ANTIBODIES” (INNATE PHARMA, priority 2016, published 2019).

B1: L234F/L235E/P331S: mAb2 variable regions as human IgG1 with L234F/L235E/P331S; heavy chain SEQ ID NO: 26, light chain SEQ ID NO: 9 (antibody)
heavy: QVQLVQSGSELKKPGASVKVSCKASGYTFTHYGMNWVRQAPGQGLKWMGWINTYTGEPTYADDFKGRFVFSLDTSVSTAYLQISSLKAEDTAVYYCARRRYEGNYVFYYFDYWGQGTTVTVSSASTKGPSVFPLAPSSKSTSGGTAALGCLVKDYFPEPVTVSWNSGALTSGVHTFPAVLQSSGLYSLSSVVTVPSSSLGTQTYICNVNHKPSNTKVDKRVEPKSCDKTHTCPPCPAPEFEGGPSVFLFPPKPKDTLMISRTPEVTCVVVDVSHEDPEVKFNWYVDGVEVHNAKTKPREEQYNSTYRVVSVLTVLHQDWLNGKEYKCKVSNKALPASIEKTISKAKGQPREPQVYTLPPSREEMTKNQVSLTCLVKGFYPSDIAVEWESNGQPENNYKTTPPVLDSDGSFFLYSKLTVDKSRWQQGNVFSCSVMHEALHNHYTQKSLSLSPGK
VL: DIQMTQSPSSLSASVGDRVTITCRASENIYSYFSWYQQKPGKAPKLLIYTAKTLAEGVPSRFSGSGSGTDFTLTISSLQPEDFATYYCQHHYVTPYTFGGGTKVEIK
modifications: Chimeric
B2: L234A/L235E/G237A/A330S/P331S: mAb2 variable regions as human IgG1 with L234A/L235E/G237A/A330S/P331S; heavy chain SEQ ID NO: 28, light chain SEQ ID NO: 9 (antibody)
heavy: QVQLVQSGSELKKPGASVKVSCKASGYTFTHYGMNWVRQAPGQGLKWMGWINTYTGEPTYADDFKGRFVFSLDTSVSTAYLQISSLKAEDTAVYYCARRRYEGNYVFYYFDYWGQGTTVTVSSASTKGPSVFPLAPSSKSTSGGTAALGCLVKDYFPEPVTVSWNSGALTSGVHTFPAVLQSSGLYSLSSVVTVPSSSLGTQTYICNVNHKPSNTKVDKRVEPKSCDKTHTCPPCPAPEAEGAPSVFLFPPKPKDTLMISRTPEVTCVVVDVSHEDPEVKFNWYVDGVEVHNAKTKPREEQYNSTYRVVSVLTVLHQDWLNGKEYKCKVSNKALPSSIEKTISKAKGQPREPQVYTLPPSREEMTKNQVSLTCLVKGFYPSDIAVEWESNGQPENNYKTTPPVLDSDGSFFLYSKLTVDKSRWQQGNVFSCSVMHEALHNHYTQKSLSLSPGK
VL: DIQMTQSPSSLSASVGDRVTITCRASENIYSYFSWYQQKPGKAPKLLIYTAKTLAEGVPSRFSGSGSGTDFTLTISSLQPEDFATYYCQHHYVTPYTFGGGTKVEIK
modifications: Chimeric
B3: L234A/L235E/P331S: mAb2 variable regions as human IgG1 with L234A/L235E/P331S; heavy chain SEQ ID NO: 27, light chain SEQ ID NO: 9 (antibody)
heavy: QVQLVQSGSELKKPGASVKVSCKASGYTFTHYGMNWVRQAPGQGLKWMGWINTYTGEPTYADDFKGRFVFSLDTSVSTAYLQISSLKAEDTAVYYCARRRYEGNYVFYYFDYWGQGTTVTVSSASTKGPSVFPLAPSSKSTSGGTAALGCLVKDYFPEPVTVSWNSGALTSGVHTFPAVLQSSGLYSLSSVVTVPSSSLGTQTYICNVNHKPSNTKVDKRVEPKSCDKTHTCPPCPAPEAEGGPSVFLFPPKPKDTLMISRTPEVTCVVVDVSHEDPEVKFNWYVDGVEVHNAKTKPREEQYNSTYRVVSVLTVLHQDWLNGKEYKCKVSNKALPASIEKTISKAKGQPREPQVYTLPPSREEMTKNQVSLTCLVKGFYPSDIAVEWESNGQPENNYKTTPPVLDSDGSFFLYSKLTVDKSRWQQGNVFSCSVMHEALHNHYTQKSLSLSPGK
VL: DIQMTQSPSSLSASVGDRVTITCRASENIYSYFSWYQQKPGKAPKLLIYTAKTLAEGVPSRFSGSGSGTDFTLTISSLQPEDFATYYCQHHYVTPYTFGGGTKVEIK
modifications: Chimeric
B4: L234A/L235E/G237A/P331S: mAb2 variable regions as human IgG1 with L234A/L235E/G237A/P331S; heavy chain SEQ ID NO: 29, light chain SEQ ID NO: 9 (antibody)
heavy: QVQLVQSGSELKKPGASVKVSCKASGYTFTHYGMNWVRQAPGQGLKWMGWINTYTGEPTYADDFKGRFVFSLDTSVSTAYLQISSLKAEDTAVYYCARRRYEGNYVFYYFDYWGQGTTVTVSSASTKGPSVFPLAPSSKSTSGGTAALGCLVKDYFPEPVTVSWNSGALTSGVHTFPAVLQSSGLYSLSSVVTVPSSSLGTQTYICNVNHKPSNTKVDKRVEPKSCDKTHTCPPCPAPEAEGAPSVFLFPPKPKDTLMISRTPEVTCVVVDVSHEDPEVKFNWYVDGVEVHNAKTKPREEQYNSTYRVVSVLTVLHQDWLNGKEYKCKVSNKALPASIEKTISKAKGQPREPQVYTLPPSREEMTKNQVSLTCLVKGFYPSDIAVEWESNGQPENNYKTTPPVLDSDGSFFLYSKLTVDKSRWQQGNVFSCSVMHEALHNHYTQKSLSLSPGK
VL: DIQMTQSPSSLSASVGDRVTITCRASENIYSYFSWYQQKPGKAPKLLIYTAKTLAEGVPSRFSGSGSGTDFTLTISSLQPEDFATYYCQHHYVTPYTFGGGTKVEIK
modifications: Chimeric

Assay: Thermal shift stability assay (TSSA), aggregation temperature
Type: physicochemical
Design: unit not given here
Details: for Tagg run1 / Tagg run2 / Tagg run3: mAb2 VH/Vk, human IgG1 Fc mutation formats, temperature of aggregation; for Tagg Mean: mean of run1-run3
Experimental: The resulting antibodies were tested for stability in the following reference formulation at a concentration of approximatively 7 mg/mL: pH 6.0; histidine buffer (10 mM); sucrose (200 mM); NaCl (50 mM); Polysorbate 80 (PS80) (0.2 g/L). […] So for this study the concentration is set at 0.2 g/L. The stability of the formulations was monitored in two storage conditions (at +5° C.±3° C. and at +40±3° C. For each study, 3 times point were performed: TO, T15D (15 days) and T1M (1 month). A freeze thaw (F/T) and a thermal shift stability assay (TSSA) were conducted for the format comparison. To perform F/T cycles, the samples were frozen at least 2 hours at −20° C. and thawed at least 1 hour at room temperature, the F/T cycle is repeated three times and samples are tested 24 h after the last Freeze/Thaw cycle. At each time point, the following tests were performed: • Particulate Matter (MFI) • Visual Inspection (Appearance) • Impurities (SE-HPLC) • Turbidity (400 nm) • Protein Concentration (280 nm) (performed with Nanodrop, Thermo Fisher Scientific Inc.)
These aromatic residues confer a relatively high predicted hydrophobicity to the antibody. However, the aromatic residues in these antibodies are believed to be important for antibody function and can probably not be replaced by a non-aromatic residue without a reduction or loss of activity. […] Aggregation temperature is correlated with the intrinsic stability. The higher the TAgg, the higher the stability of the protein. […] The stability of each of the Fc domain of human IgG1 isotype comprises an amino acid substitution at Kabat residue(s) 234, 235, 237, 330 and/or 331 (L234A/L235E/P331S substitutions, L234F/L235E/P331S substitutions, L234A/L235E/G237A/P331S substitutions, and L234A/L235E/G237A/A330S/P331S substitutions) improved the antibody, as shown in the table below. Such mutations can therefore enhance the pharmacological properties and/or activity of the antibody.

Molecule	Tagg run1	Tagg run2	Tagg run3	Tagg Mean
B1	67.65	67.87	68.34	68.0
B2	66.35	67.58	67.07	67.0
B3	66.50	66.91	67.77	67.1
B4	66.08	66.55	66.29	66.3
